According to the supplement of paper PMC9112550, “Optimization of the antimicrobial peptide Bac7 by deep mutational scanning” (BMC Biology, 2022):

Test system: Escherichia coli TOP10
Test: shrunken log2 fold change of peptide-encoding DNA abundance (4.5 h post-induction vs induction); higher = less antimicrobial activity (less host growth inhibition)
Conditions: time post-induction: 4.5 h; library: site-saturation at positions 5, 18, 19, 20
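Further: peptides expressed intracellularly from a pBAD plasmid library in pooled LB shake-flask culture, induced with 0.3% L-arabinose, DNA abundance read by NGS, three biological replicates, DESeq2 with apeglm shrinkage.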

Sequence	shrunken log2 fold change
RRIRPRPPRLPRPRPRPLLYPRP	-0.348
RRIRPRPPRLPRPRPRPCNIPRP	-0.554
RRIRLRPPRLPRPRPRPDSNPRP	-0.0277
RRIRKRPPRLPRPRPRPFLPPRP	-0.0487
RRIRKRPPRLPRPRPRPEMEPRP	3.59
RRIRWRPPRLPRPRPRPMTTPRP	0.1
RRIRMRPPRLPRPRPRPRNMPRP	0.281
RRIRRRPPRLPRPRPRPWMPPRP	-0.217
RRIRYRPPRLPRPRPRPSVAPRP	-0.183
RRIRSRPPRLPRPRPRPGLMPRP	0.197
RRIRKRPPRLPRPRPRPYPEPRP	-0.0874
RRIRLRPPRLPRPRPRPDLWPRP	0.774
RRIRFRPPRLPRPRPRPQTMPRP	-0.144
RRIRDRPPRLPRPRPRPNKTPRP	-0.132
RRIRQRPPRLPRPRPRPSQLPRP	0.0128
RRIRSRPPRLPRPRPRPQRHPRP	0.141
RRIRRRPPRLPRPRPRPQLEPRP	0.059
RRIRFRPPRLPRPRPRPVNMPRP	-1.23
RRIRRRPPRLPRPRPRPGLKPRP	0.377
RRIRQRPPRLPRPRPRPDFAPRP	-0.0596
RRIRDRPPRLPRPRPRPRFAPRP	0.327
RRIRKRPPRLPRPRPRPEWSPRP	0.0885

Sequence	shrunken log2 fold change
RRIRWRPPRLPRPRPRPKLEPRP	0.808
RRIRQRPPRLPRPRPRPHNMPRP	-0.283
RRIRWRPPRLPRPRPRPPFEPRP	0.765
RRIRTRPPRLPRPRPRPEWSPRP	0.0383
RRIRPRPPRLPRPRPRPGWNPRP	-0.055
RRIRLRPPRLPRPRPRPNFTPRP	-0.501
RRIRDRPPRLPRPRPRPPLVPRP	0.194
RRIRLRPPRLPRPRPRPEMDPRP	-0.059
RRIRCRPPRLPRPRPRPWDFPRP	-0.0326
RRIRGRPPRLPRPRPRPKCSPRP	0.704
RRIRKRPPRLPRPRPRPTPFPRP	0.113
RRIRDRPPRLPRPRPRPHNSPRP	0.0166
RRIRLRPPRLPRPRPRPCKNPRP	-0.0458
RRIRDRPPRLPRPRPRPWVFPRP	0.289
RRIRQRPPRLPRPRPRPEQDPRP	0.311
RRIRYRPPRLPRPRPRPQKYPRP	-0.969
RRIRKRPPRLPRPRPRPDTKPRP	-0.0643
RRIRCRPPRLPRPRPRPEYAPRP	0.204
RRIRLRPPRLPRPRPRPGWQPRP	0.175
RRIRNRPPRLPRPRPRPWGPPRP	-0.37
RRIRVRPPRLPRPRPRPWIIPRP	-0.652
RRIRMRPPRLPRPRPRPAMQPRP	0.404

Sequence	shrunken log2 fold change
RRIRHRPPRLPRPRPRPEWYPRP	0.0294
RRIRFRPPRLPRPRPRPNSEPRP	-0.406
RRIRHRPPRLPRPRPRPVISPRP	-0.199
RRIRFRPPRLPRPRPRPQYEPRP	0.0625
RRIRCRPPRLPRPRPRPYAMPRP	-0.436
RRIRLRPPRLPRPRPRPDYRPRP	-0.0122
RRIRHRPPRLPRPRPRPMLQPRP	-0.0377
RRIRFRPPRLPRPRPRPLMLPRP	-0.282
RRIRDRPPRLPRPRPRPVEVPRP	0.43
RRIRDRPPRLPRPRPRPHKTPRP	-0.0521
RRIRWRPPRLPRPRPRPPSTPRP	0.402
RRIRWRPPRLPRPRPRPMQFPRP	0.104
RRIRIRPPRLPRPRPRPHSRPRP	-0.197
RRIRRRPPRLPRPRPRPVVTPRP	0.911
RRIRQRPPRLPRPRPRPSNFPRP	-0.621
RRIRARPPRLPRPRPRPTKIPRP	0.272
RRIRKRPPRLPRPRPRPSGMPRP	0.115
RRIRCRPPRLPRPRPRPGKVPRP	0.181
RRIRERPPRLPRPRPRPGSGPRP	0.101
RRIRFRPPRLPRPRPRPSTWPRP	-0.000934
RRIRCRPPRLPRPRPRPIQGPRP	-0.0195
RRIRVRPPRLPRPRPRPYPFPRP	-0.863

Sequence	shrunken log2 fold change
RRIRGRPPRLPRPRPRPSDKPRP	0.0485
RRIRYRPPRLPRPRPRPEGQPRP	0.0448
RRIRSRPPRLPRPRPRPYPDPRP	-0.172
RRIRERPPRLPRPRPRPFITPRP	-0.314
RRIRVRPPRLPRPRPRPKWAPRP	0.269
RRIRFRPPRLPRPRPRPNGAPRP	-0.105
RRIRIRPPRLPRPRPRPDSCPRP	-0.972
RRIRRRPPRLPRPRPRPSTDPRP	-0.14
RRIRCRPPRLPRPRPRPRGYPRP	0.471
RRIRIRPPRLPRPRPRPESGPRP	-0.135
RRIRYRPPRLPRPRPRPWILPRP	-0.482
RRIRFRPPRLPRPRPRPQDCPRP	0.00177
RRIRRRPPRLPRPRPRPHSGPRP	0.0307
RRIRCRPPRLPRPRPRPQGAPRP	-0.144
RRIRDRPPRLPRPRPRPLYVPRP	-0.17
RRIRKRPPRLPRPRPRPLWCPRP	0.0281
RRIRFRPPRLPRPRPRPFHNPRP	-0.622
RRIRARPPRLPRPRPRPTSRPRP	0.119
RRIRARPPRLPRPRPRPMAVPRP	0.209
RRIRDRPPRLPRPRPRPYDLPRP	-0.00674
RRIRFRPPRLPRPRPRPGLYPRP	-0.171
RRIRLRPPRLPRPRPRPYYRPRP	-0.043

Sequence	shrunken log2 fold change
RRIRVRPPRLPRPRPRPLVKPRP	-0.0152
RRIRRRPPRLPRPRPRPSNMPRP	-0.311
RRIRPRPPRLPRPRPRPVGYPRP	0.394
RRIRERPPRLPRPRPRPDASPRP	0.0331
RRIRSRPPRLPRPRPRPQYVPRP	-0.22
RRIRVRPPRLPRPRPRPLGKPRP	0.0149
RRIRPRPPRLPRPRPRPSGCPRP	0.142
RRIRPRPPRLPRPRPRPTKEPRP	0.193
RRIRKRPPRLPRPRPRPDLWPRP	0.123
RRIRYRPPRLPRPRPRPKPTPRP	0.278
RRIRCRPPRLPRPRPRPQGLPRP	0.161
RRIRVRPPRLPRPRPRPNEMPRP	0.0222
RRIRGRPPRLPRPRPRPSCTPRP	0.565
RRIRVRPPRLPRPRPRPIYCPRP	-0.113
RRIRIRPPRLPRPRPRPHYDPRP	-0.801
RRIRRRPPRLPRPRPRPGYRPRP	-0.119
RRIRVRPPRLPRPRPRPANRPRP	-0.179
RRIRGRPPRLPRPRPRPSHQPRP	-0.0609
RRIRLRPPRLPRPRPRPLHQPRP	-0.297
RRIRRRPPRLPRPRPRPGFLPRP	-0.0551
RRIRGRPPRLPRPRPRPEWIPRP	0.142
